Laboratory results: patent US20160312212A1 (published 2016)
Where no end group is shown, it is not given here. The star is where a group is joined. Biotin = O=C1N[C@H]2[C@H](CS[C@H]2CCCCC(=O)*)N1

How the values were obtained:
Thrombin [1] = target: T1, Thrombin (UniProt P00734 328-622); assay: SPR (Biacore multiple cycle kinetics)
Thrombin [2] = target: T1, Thrombin; assay: SPR (Biacore single cycle kinetics)

| Kd (Thrombin [1]) [nM] | Kd (Thrombin [2]) [nM] | Binder |
| --- | --- | --- |
| 36.6 |  | Biotin-GGGGSGGGGSRDPGRLIFQS [Biotin-GGGGSGGGGSRDPGRLIFQS] |
|  | 0.96 | peptide encoded by linear DNA template 300-53-C (cow antibody scaffold with RDPGRLIFQS and Strep-tag II) (designed binder) MGCTSVHQETKKYQSRDPGRLIFQSSYTYNYEHVDVWGCGSAWSHPQFEKGS |
| 0.78 |  | Biotin-GCTSVHQETKKYQSRDPGRLIFQSSYTYNYEHVDVWGCG (designed binder, cysteine pairing not given here) [Biotin-GCTSVHQETKKYQSRDPGRLIFQSSYTYNYEHVDVWGCG] |
